Experiment [1] concerns the target mature human IL-18 K89A mutant (human) (UniProt Q14116). The experiment can be described thus: cell-based or functional assay.
The target of experiment [2] is mature human IL-18 WT, generated by factor Xa cleavage of proIL-18 (ICE/Xa) (human) (UniProt Q14116). Nature of the experiment: cell-based or functional assay.
Chain of mature human IL-18 WT, generated by factor Xa cleavage of proIL-18 (ICE/Xa) (human) (Q14116 37-193 limits assumed): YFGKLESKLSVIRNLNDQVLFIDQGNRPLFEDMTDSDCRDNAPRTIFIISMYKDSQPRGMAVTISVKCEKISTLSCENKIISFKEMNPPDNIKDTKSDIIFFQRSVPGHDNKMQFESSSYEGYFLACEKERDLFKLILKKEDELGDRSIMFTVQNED

Chain of mature human IL-18 K89A mutant (human) (Q14116 37-193 K89A): as the sequence (Q14116 37-193 limits assumed) above, with K53A counted along it

In experiment [1], “"a" isoform of CHO cell produced recombinant his-6-tagged human IL-18BP (from UniProt O95998 31-194)” gave an IL-18BP concentration giving a statistically significant reduction of IFN-γ co-induction in NKO cells of 120 ng/mL and an IL-18BP concentration that neutralized IFN-γ induction in PBMCs of 120 ng/mL. In experiment [2], this substance displayed a 50% inhibitory concentration of IL-18BP for co-induction of IFN-γ from NKO cells of 15 ng/mL and an amount of IL-18BP needed to neutralize IFN-γ induction in PBMCs of 3.7 ng/mL.

The values are drawn from patent US20020169291A1.
